Assay results published in doi:10.1101/720938 (bioRxiv, 2019).

Target: the molecule itself
Assay: cryo-EM structure

Protein | binding result
PilA4, major pilin of Thermus thermophilus HB27 (subunit of the wide type IV pilus) (natural protein, T. thermophilus HB27, UniProt Q72JC0 7-131, looked up, extra densities at Ser59, Ser66 and Ser71, suggested to be O-linked glycosylation; disulphide bond Cys89-Cys124) FTLIELLIVIAIIAILAAVLIPNLLAARKRANDTVVTAYLNDAVKFQEMYQIDNNSYTSNQAALISLGLKSTPANVTFSIVSASANSYCMIAGHSGGTVWFAATPDKGVYKTNTAVTSSQPESCP | binds
PilA5 (TT_C1836), pilin of Thermus thermophilus HB27 (subunit of the narrow type IV pilus) (natural protein, T. thermophilus HB27, UniProt Q72GL2 6-116, looked up, extra density at Ser73, suggested to be O-linked glycosylation; disulphide bond Cys60-Cys88) FTLIELAIVIVIIGILVAIAVPRFVDLTDQANQANVDATAAAVRSAYAIATVQAKGIPTCDQVFANPEGGSTSGSTWTSSDNSTTVSCNASADTFTISRGGKTRTLNLTVN | binds
